Legend:
[1] = target: T1, muCDH19(44-139)::huCDH19(142-364)::muCDH19(363-770), Flag-tagged, on 293T cells (human/mouse chimera); experiment: FACS, transfected 293T
T1 construct: also called Hu EC2-3; C137847
Description: (§1) The experiment included assaying the anti-CDH19 antibodies against mouse Cadherin19 to determine suitability for binning on these human/mouse chimeras.

[2] = target: T2, muCDH19(44-247)::huCDH19(250-364)::muCDH19(363-770), Flag-tagged, on 293T cells (human/mouse chimera); experiment: FACS, transfected 293T
T2 construct: also called Hu EC3; C137911
Description: as §1

[3] = target: T3, huCDH19(44-772), Flag-tagged, on 293T cells (human, UniProt Q9H159 44-772); experiment: FACS, transfected 293T
T3 construct: Expressed with native leader (1-43) followed by a Flag tag; leader left out; also called Hu EC1-5
Description: as §1

[4] = target: T4, huCDH19(44-141)::muCDH19(140-770), Flag-tagged, on 293T cells (human/mouse chimera); experiment: FACS, transfected 293T
T4 construct: also called Hu EC1
Description: as §1

[5] = target: T5, huCDH19(44-249)::muCDH19(248-770), Flag-tagged, on 293T cells (human/mouse chimera); experiment: FACS, transfected 293T
T5 construct: also called Hu EC1-2; C137896
Description: as §1

[6] = target: T6, muCDH19(44-362)::huCDH19(365-772), Flag-tagged, on 293T cells (human/mouse chimera); experiment: FACS, transfected 293T
T6 construct: also called Hu EC4-5; C137917
T6 chain: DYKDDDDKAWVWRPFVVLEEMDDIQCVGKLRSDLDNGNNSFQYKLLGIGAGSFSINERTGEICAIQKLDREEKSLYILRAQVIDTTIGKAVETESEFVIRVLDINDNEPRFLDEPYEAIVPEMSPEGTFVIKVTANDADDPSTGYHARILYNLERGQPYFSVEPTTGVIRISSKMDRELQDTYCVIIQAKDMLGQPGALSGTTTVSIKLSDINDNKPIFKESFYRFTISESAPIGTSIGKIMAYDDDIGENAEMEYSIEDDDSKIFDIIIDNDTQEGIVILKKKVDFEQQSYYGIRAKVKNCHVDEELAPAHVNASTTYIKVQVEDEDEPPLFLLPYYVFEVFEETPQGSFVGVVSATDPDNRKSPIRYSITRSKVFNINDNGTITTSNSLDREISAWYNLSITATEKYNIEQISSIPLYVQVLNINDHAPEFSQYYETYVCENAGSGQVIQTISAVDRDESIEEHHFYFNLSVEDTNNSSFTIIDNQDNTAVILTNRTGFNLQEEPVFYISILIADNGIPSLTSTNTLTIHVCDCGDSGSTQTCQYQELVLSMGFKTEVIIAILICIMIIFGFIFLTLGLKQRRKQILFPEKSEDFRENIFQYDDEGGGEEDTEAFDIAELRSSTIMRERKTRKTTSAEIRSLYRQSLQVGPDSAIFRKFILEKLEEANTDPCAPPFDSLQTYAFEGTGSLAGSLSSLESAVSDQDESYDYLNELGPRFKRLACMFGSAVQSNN
Description: as §1

[7] = target: T7, muCDH19(44-770), Flag-tagged, on 293T cells (mouse); experiment: FACS, transfected 293T
T7 construct: also called Mu EC1-5
T7 chain: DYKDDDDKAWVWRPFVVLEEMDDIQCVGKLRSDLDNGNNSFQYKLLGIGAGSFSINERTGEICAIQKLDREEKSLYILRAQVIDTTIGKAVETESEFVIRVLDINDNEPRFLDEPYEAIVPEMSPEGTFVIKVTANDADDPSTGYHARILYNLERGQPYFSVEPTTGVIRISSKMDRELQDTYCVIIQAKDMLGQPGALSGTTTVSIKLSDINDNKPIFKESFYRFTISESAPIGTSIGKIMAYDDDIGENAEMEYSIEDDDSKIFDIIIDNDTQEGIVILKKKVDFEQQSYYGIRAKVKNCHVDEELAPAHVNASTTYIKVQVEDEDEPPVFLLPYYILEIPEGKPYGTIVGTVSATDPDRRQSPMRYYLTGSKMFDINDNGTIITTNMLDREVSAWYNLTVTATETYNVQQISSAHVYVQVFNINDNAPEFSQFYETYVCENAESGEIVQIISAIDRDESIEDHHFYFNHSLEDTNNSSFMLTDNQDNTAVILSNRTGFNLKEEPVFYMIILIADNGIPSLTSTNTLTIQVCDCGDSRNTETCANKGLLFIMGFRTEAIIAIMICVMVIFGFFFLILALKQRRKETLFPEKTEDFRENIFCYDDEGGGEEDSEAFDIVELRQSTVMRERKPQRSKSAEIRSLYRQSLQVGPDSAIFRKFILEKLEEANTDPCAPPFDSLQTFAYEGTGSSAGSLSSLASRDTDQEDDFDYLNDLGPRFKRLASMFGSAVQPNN
Description: as §1

[8] = target: T8, muCDH19(44-139)::huCDH19(142-249)::muCDH19(248-770), Flag-tagged, on 293T cells (human/mouse chimera); experiment: FACS, transfected 293T
T8 construct: also called Hu EC2; C137913
T8 chain: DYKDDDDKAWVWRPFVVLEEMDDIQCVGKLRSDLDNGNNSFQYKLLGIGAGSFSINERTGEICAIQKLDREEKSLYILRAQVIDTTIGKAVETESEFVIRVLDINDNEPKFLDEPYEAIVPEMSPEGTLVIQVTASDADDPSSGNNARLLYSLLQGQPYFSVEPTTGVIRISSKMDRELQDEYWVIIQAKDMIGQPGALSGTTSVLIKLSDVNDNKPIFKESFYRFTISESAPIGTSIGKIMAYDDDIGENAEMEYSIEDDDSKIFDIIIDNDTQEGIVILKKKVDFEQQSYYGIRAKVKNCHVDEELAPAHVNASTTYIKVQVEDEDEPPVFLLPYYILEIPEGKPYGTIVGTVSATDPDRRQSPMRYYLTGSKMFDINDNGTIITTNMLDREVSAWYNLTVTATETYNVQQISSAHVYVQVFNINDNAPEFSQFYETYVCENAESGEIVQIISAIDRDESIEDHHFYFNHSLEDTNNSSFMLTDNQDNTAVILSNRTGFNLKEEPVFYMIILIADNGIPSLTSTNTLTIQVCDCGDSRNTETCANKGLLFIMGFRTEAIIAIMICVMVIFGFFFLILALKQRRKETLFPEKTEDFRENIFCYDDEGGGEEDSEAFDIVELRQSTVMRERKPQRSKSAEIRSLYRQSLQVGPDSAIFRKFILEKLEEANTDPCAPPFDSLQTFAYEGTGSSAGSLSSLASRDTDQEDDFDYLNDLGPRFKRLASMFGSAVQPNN
Description: as §1

[9] = target: T9, muCDH19(44-461)::huCDH19(464-772), Flag-tagged, on 293T cells (human/mouse chimera); experiment: FACS, transfected 293T
T9 construct: also called Hu EC5; C137915
T9 chain: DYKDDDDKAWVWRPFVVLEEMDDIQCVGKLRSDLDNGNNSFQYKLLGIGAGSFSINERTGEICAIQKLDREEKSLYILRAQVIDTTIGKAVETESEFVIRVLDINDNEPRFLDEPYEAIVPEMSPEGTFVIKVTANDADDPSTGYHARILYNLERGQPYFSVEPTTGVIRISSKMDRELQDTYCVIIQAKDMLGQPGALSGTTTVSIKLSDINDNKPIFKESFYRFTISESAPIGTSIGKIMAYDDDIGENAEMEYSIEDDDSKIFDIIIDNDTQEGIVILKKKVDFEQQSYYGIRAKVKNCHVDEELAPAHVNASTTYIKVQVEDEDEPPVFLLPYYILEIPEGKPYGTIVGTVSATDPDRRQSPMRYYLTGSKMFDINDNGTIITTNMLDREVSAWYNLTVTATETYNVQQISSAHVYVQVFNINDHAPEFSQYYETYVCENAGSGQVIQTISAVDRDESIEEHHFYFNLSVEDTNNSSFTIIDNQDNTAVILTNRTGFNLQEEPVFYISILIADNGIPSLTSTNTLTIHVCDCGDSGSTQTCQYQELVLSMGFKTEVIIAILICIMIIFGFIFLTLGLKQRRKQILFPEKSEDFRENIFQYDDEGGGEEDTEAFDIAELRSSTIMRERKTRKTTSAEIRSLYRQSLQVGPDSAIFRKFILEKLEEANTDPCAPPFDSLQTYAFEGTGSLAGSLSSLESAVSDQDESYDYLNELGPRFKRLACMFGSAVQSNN
Description: as §1

Human Cadherin-19 [10] = target: T10, Human Cadherin-19 (human, UniProt Q9H159 44-772); experiment: FACS, endogenous and recombinant human CDH19
T10 construct: Residues 1-43 are named as the native leader in the construct designations and are left out; also called human CDH19; huCDH19
Protocol: (§2) FACS binding assays were performed to evaluate the binding of the anti-Cadherin-19 receptor specific antibodies to endogenous Cadherin-19 receptor expressed on the CHL-1 tumor cell lines.
(§3) FACs assays were performed by incubating hybridoma supernatants with 10,000 to 25,000 cells in PBS/2% Fetal bovine serum/2 mM Calcium Chloride at 4° C. for one hour followed by two washes with PBS/2% Fetal bovine serum/2 mM Calcium Chloride. Cells were then treated with florochrome-labeled secondary antibodies at 4° C. followed by one wash. The cells were resuspended in 50 μl of PBS/2% FBS and antibody binding was analyzed using a FACSCalibur™ instrument.

Cyno Cadherin-19 = target: T11, Cyno Cadherin-19 (cynomolgus monkey (Macaca fascicularis), UniProt Q9H159 44-772 (human entry)); experiment: FACS, recombinant cyno CDH19
T11 construct: also called cyno CDH19; cynomologous CDH-19
T11 chain: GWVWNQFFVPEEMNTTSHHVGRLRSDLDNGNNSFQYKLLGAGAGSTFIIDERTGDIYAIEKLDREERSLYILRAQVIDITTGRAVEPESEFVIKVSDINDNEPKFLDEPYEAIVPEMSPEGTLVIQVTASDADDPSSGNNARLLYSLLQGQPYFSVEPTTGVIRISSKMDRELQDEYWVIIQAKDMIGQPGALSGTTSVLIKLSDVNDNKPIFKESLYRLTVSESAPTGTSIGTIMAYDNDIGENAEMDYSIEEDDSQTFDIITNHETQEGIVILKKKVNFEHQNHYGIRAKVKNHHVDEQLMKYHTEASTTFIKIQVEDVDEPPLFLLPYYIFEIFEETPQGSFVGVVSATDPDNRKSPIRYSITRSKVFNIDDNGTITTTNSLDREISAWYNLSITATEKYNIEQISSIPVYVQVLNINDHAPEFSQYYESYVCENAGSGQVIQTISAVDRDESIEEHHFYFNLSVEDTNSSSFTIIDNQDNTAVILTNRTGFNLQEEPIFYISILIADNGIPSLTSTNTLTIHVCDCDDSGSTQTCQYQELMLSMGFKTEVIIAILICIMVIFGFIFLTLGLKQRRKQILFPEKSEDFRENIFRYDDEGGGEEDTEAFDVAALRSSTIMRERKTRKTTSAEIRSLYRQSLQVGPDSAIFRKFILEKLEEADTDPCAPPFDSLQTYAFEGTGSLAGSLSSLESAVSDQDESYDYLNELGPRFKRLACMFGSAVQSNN

Human Cadherin-19 [11] = target: T10, Human Cadherin-19; experiment: FACS, endogenous CDH19 on tumor cells and 293/CDH-19 transfectants
Protocol: as §2, §3

Measured: binding result

B1: hu anti-<huCDH19> 4A2 (1-472)(Q17E,H47P) VH::huIgG1z / 4A2 (1-236)(N30Q,T102A) VL::huKLC (Ab ID 14026) (antibody, V domains shown)
VH: QVQLQESGPGLVKPSETLSLTCTVSGGSISSSGYYWSWIRQPPGKGLEWIGYIYYTGSAYYNPSLKSRVTISVDTSKNQFSLKLSSVTAADTAVYYCARDGSSGWYFQYWGQGTLVTVSS
VL: EIVLTQSPGTLSLSPGERATLSCRASRQISSSYLAWYQQKPGQAPRLLIYGPSSRATGIPDRFSGSGSGTDFTLTISRLEPEDFAVYYCQQYGSSFTFGPGTKVDIKR
notes: Engineered variant of 4A2
binds: [1] | [2] | [3]

B2: hu anti-<huCDH19> 2G6 (1-477)(R17G,D61E,D72E,K94N) VH::huIgG1z / 2G6 (1-234)(C42S,D110E) VL::huLLC-C1 (Ab ID 14039) (antibody, V domains shown)
VH: QVQLVESGGGVVQPGGSLRLSCAASGFTFSSYGMHWVRQAPGKGLEWVAFIWYEGSNKYYAESVKDRFTISRDNSKNTLYLQMNSLRAEDTAVYYCARRAGIIGTIGYYYGMDVWGQGTTVTVSS
VL: SYELTQPPSVSVSPGQTASITCSGDRLGEKYTSWYQQRPGQSPLLVIYQDTKRPSGIPERFSGSNSGNTATLTISGTQAMDEADYYCQAWESSTVVFGGGTKLTVLG
notes: Engineered variant of 2G6
not listed: Human Cadherin-19 [10] | Cyno Cadherin-19 | Human Cadherin-19 [11]
binds: all other assays above

B3: anti-CDH19 antibody 23A10 (Ab ID 13884) (antibody, human IgG1, lambda, V domains shown)
VH: QVQLVESGGGVVQPGRSLRLSCAASGFTFSRYGIHWVRQAPGKGLEWVAVIWYDGSNKYYADSVKGRFTISRDNSKNTLYLLMNSLRAEDSAVYYCARRAGIPGTTGYYYGMDVWGQGTTVTVSS
VL: SYELTQPPSVSVSPGQTASITCSGDRLGEKYVCWYQQKPGQSPILVIYQDNKWPSGIPERFSGSNSGNTATLTISGTQAMDEADYYCQAWDSSTVVFGGGTKLTVLG
binds: Human Cadherin-19 [10] | Cyno Cadherin-19

B4: hu anti-<huCDH19> 4B10 (1-471)(R17G) VH::huIgG1z / 4B10 (1-236)(H45Q,A90T) VL::huKLC (Ab ID 14054) (antibody, V domains shown)
VH: QVQLVESGGGVVQPGGSLRLSCAASGFTFSSYDMHWVRQAPGKGLEWVAVISYDGTNEYYADSVKGRFTISRDTSKNTLYLQMNSLRAEDTAVYYCARERYFDWSFDYWGQGTLVSVSS
VL: EIVLTQSPGTLSLSPGERATLSCRASQSVSNTYLAWYQQRPGQAPRLLIYGASSRATGIPDRFSGSGSGTDFTLTISSLEPEDFAVYYCQQYSNSWTFGQGTKVEIKR
notes: Engineered variant of 4B10
binds: [1] | [2] | [3]

B5: hu anti-<huCDH19> 22G10.1 VH::huIgG1z / 22G10.1 VL::huKLC (Ab ID 13877) (antibody, V domains shown)
VH: EVQLLESGGGLVQPGGSLRLSCAASGFTFSSYAMNWVRQAPGKGLEWVSTISGGGANTYYADSVKGRFTISSDNSKSTLYLQMNSLRAADTAVYHCAKGGMGGYYYGMDVWGQGTTVTVSS
VL: EIVMTQSPVTLSLSLGERATLSCRASQSISSNLAWFQQKPGQAPRLLIYGAFTRATGIPARVSGSGSGTEFTLTISSLQSEDFAVYYCQQYNYWPLTFGGGTKVEIKR
binds: Cyno Cadherin-19 | Human Cadherin-19 [11]
